The text below walks through data of the supplement of paper PMC12042874.

± gives the uncertainty stated by the source.

The nature of the data set: amyloid nucleation score (Sup35N fusion, yeast selection) (log enrichment); library NNK1; higher = more nucleation; inactive = no reads after selection. Put shortly: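 The nucleation score is the DiMSum log enrichment of output over input reads, centred on the mode score of non-aggregating sequences. Only sequences with 100 or more input reads were scored, using Illumina sequencing of input and output plasmid inserts. Psi-negative yeast expressing Sup35N fused to peptides of 20 random codons were induced 24 hours with 100 μM copper sulfate and grown 7 days at 30°C on medium lacking adenine and uracil.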
On to EVYKHHYLA, for which the amyloid nucleation score turned out to be 0.044 ± 0.47.
The value for FRCYVFANCD was 1.59 ± 0.4.
Turning to PTMSLIDGIVGKLMDSRVGT, the amyloid nucleation score is -0.11 ± 0.32.
As for RTGVIWYY, the figure is -0.677 ± 1.
As for HITDYRVRT, the figure is 1.27 ± 0.41.
The value for SLNVVLFCRPTGVCSHGIGW was 1.91 ± 0.26; that for RVDRMKNIFVRYRTVRVHGG was 9.304 ± 0.045.
In turn, DPDHGPFQNNVWQRRPRWSH returned an amyloid nucleation score of 0.124 ± 0.47.
As for YPMRTQRVASHMV, the figure is -0.383 ± 0.58; as for CSCYQALKLA, -0.49 ± 0.88; as for ICYNKSSP, -0.097 ± 1.2.
As for DDSGRL, the figure is 0.494 ± 0.59.
As for NDSNSPIFPGGDHPWCGFDW, the figure is 0.089 ± 0.88; as for SPRSLMKGVITTHIIG, 0.917 ± 0.4; as for RFGYFFHLVGAGEGHGKGAC, 0.686 ± 0.59.
On to ITDVMCMGGSTCFGNSGYTN, for which the amyloid nucleation score stood at 0.108 ± 0.56.
With WNLNKYSFILALDGSYYVLN, the amyloid nucleation score turned out to be 3.23 ± 0.24.
As for AHLEGYYHWHYSEFWSVVVK, the figure is -0.437 ± 0.31.
The value for TNELCMYCLGHLGY was 0.694 ± 0.84.
As for FVLTYDLMLLQSGFNSRL, the figure is 0.756 ± 0.87.
The substance IMGHIKM displayed an amyloid nucleation score of -0.366 ± 0.44.
The value for HHGSCFEGLFCSETFCLAIM was 6.495 ± 0.055; that for PCLVGIDMVTMVAESLCGSG was -0.958 ± 1.3; that for GSWYHDRVSLCFFIFDCG was 4.82 ± 0.076.
As for NYAAPVSCRGLADEGRSRTD, the figure is -0.4 ± 0.49; as for YYPNKLFEYSKWNHAAGRVR, 0.085 ± 0.64; as for CAVHYKLCDLYHT, 0.381 ± 0.5.
The value for DAYVLD was 0.314 ± 0.34; that for LSGGPSGLINAFLYPSPNKW was 0.07 ± 0.81.
Take MAFMHLIISYCRYIF: the amyloid nucleation score came out at 0.341 ± 0.74.
As for GGSRTIVP, the figure is 0.411 ± 0.48.
The value for HGCKYAKGASDLYDIMCFCW was 0.602 ± 0.38.
Take GTIVEWAT: the amyloid nucleation score result was “inactive”.
In turn, HARIS displayed an amyloid nucleation score of -0.313 ± 0.79.
PLHWS came in with an amyloid nucleation score of 0.416 ± 0.3.
As for CHVIIVQRYFMSVTLSQCWW, the figure is 0.489 ± 0.24.
Substance SGCLLSDGEF had an amyloid nucleation score of 0.046 ± 0.32.
For the substance VDRILFNVLAVSFDMELRSL, the amyloid nucleation score stood at 0.224 ± 0.24.
The substance LYSIVVKYCYQYLSRACNYN came in with an amyloid nucleation score of 0.637 ± 0.36.
Substance CAVVVGVSGGAHEGVGKTKY returned an amyloid nucleation score of -0.35 ± 0.45.
As for QMTKNYEWDSTRIACVGLHR, the figure is 2.68 ± 0.11; as for IFNSATSTCNSRYIYIK, 4.26 ± 0.074; as for WRESSWLCMWERNVKVDWGR, -0.87 ± 1.7.
The value for IVTSMSYNFLLKLMAGPQLR was 0.274 ± 0.67; that for RCLMPYNYE was 0.952 ± 0.49; that for KDLLMKV was 0.507 ± 0.64.
The value for LHLAAMM was -0.344 ± 1.1; that for TLRWGNYKLLQIVYITVWRD was 0.541 ± 0.28.
Take ITYTGASR: the amyloid nucleation score came out at 0.295 ± 0.57.
The substance NRFFSRVKKYPYTLSYPGFC registered an amyloid nucleation score of 0.065 ± 0.29.
The value for SQAMTPNGVTSLLFTN was -0.236 ± 0.59.
Substance RLMTDHINSTVTSMGKGRIT yielded an amyloid nucleation score of -0.026 ± 0.22.
The value for DLGNLFLGISVKCI was 0.961 ± 0.53.
As for NNSYFMCNTLRRVLMGLLLG, the figure is 1.11 ± 0.65; as for SRILRLLHTVHCDGVGERLR, -0.104 ± 1.1.
The value for FSTMAYTWVLYTSWACAGAS was 0.075 ± 0.69; that for DTRNPRITALRY was 0.431 ± 0.39; that for IYGDGNCIIFLMGQRP was 6.38 ± 0.085.
Substance EFVVGDKR displayed an amyloid nucleation score of -0.311 ± 0.82.
The value for SGWRSHKLLVSSSCMNARSY was -0.837 ± 0.48.
The value for CSKRTTYYFPWFICELTRLV was -0.195 ± 0.6; that for VNPFIFLNRNCAPILGWTCC was 3.11 ± 0.11; that for IYEMVGLTNVEFWYTKKYCS was -0.003 ± 0.18.
The value for TLNLWSAWLLFPYDLAGIFY was -0.199 ± 0.33; that for TCAGDNHDCDIYRNLLVAFS was 1.19 ± 0.68; that for YERVRPGAIHFRIETI was 0.146 ± 0.53.
KYVIGVNAMEWWPTTTAI yielded an amyloid nucleation score of 0.166 ± 1.6.
As for IFTAVSSVAFLSLINVLSLL, the figure is 2.75 ± 0.21.
The value for LEFVYNH was 1.44 ± 0.74.
Consider YYQRTPSTDRSLWFTGWNVN, for which the amyloid nucleation score was -0.424 ± 0.19.
The value for CLAFQLDWLRMGLFKSMEGT was -0.384 ± 0.35; that for DDKITSLLVMSRDKVKPMSD was “inactive”; that for VGSSNTTNKYPGFCCWRFDG was 0.444 ± 0.53.
The value for CNWPDLDLSNRKWNPMKSML was 0.146 ± 0.69.
As for GNLGI, the figure is -0.31 ± 0.59.
On to TYNYFCGLVIVVVNGVHLRV, for which the amyloid nucleation score worked out at 5.507 ± 0.047.
As for TVTDYKTYASLLFGTKTYAI, the figure is 2.17 ± 0.47.
The value for SFRIVLLPPF was 2.64 ± 0.26; that for LCANNFHHVDKTGFAICNIH was 3.64 ± 0.051.
The value for FDIVDANKGAAPGKTVYLWR was 0.641 ± 0.93; that for ANSVIFDGRSKGLAKHTVSY was -0.276 ± 0.65; that for MWSIYMHVAHLGMQTRGCCR was 1.76 ± 0.22.
FFCRFGILFSTKGFLGFMRF: the amyloid nucleation score worked out at 1.01 ± 0.67.
Substance YVRVRSIDVLQQKRSLFVRD came in with an amyloid nucleation score of 0.595 ± 0.97.
The value for CLGYGYSSEDTQTSLCSGVE was -0.642 ± 1.
The value for NPGIDYNERYWMG was -1.09 ± 1.1; that for ISCTNCLKCPLYTSFRPLLC was -0.13 ± 0.44.
Take YSGCRTPDTVSVVTSTHAEY: the amyloid nucleation score result was “inactive”.
The value for LVGRRGYFSLVWVPGMSFMR was 0.289 ± 0.45.
As for IDNGDCYNDRVLADTVS, the figure is -0.577 ± 0.6; as for YSARMLIRLSLLGFLPVSAP, 0.711 ± 0.55.
As for VWRGRGCNHLYVMEEKLVGV, the figure is 0.623 ± 0.41.
In turn, HLWRVRLV had an amyloid nucleation score of 0.01 ± 0.61.
As for YDNWVVGNYGLSAERICRVE, the figure is 0.085 ± 0.77.
In turn, FLIEMCYV gave an amyloid nucleation score of -0.484 ± 0.88.
As for SEDVLIPAGRCPL, the figure is 0.845 ± 0.7; as for VLLYHNEDHWFCSRYYSSVS, “inactive”.
The value for CTSPLVLIHKYYYVMVAVHS was 0.821 ± 0.55; that for IESEGSWRIHWK was 0.638 ± 0.39.
With SWISCASGFFYFWAIF, the amyloid nucleation score is -0.739 ± 0.77.
Turning to MFGIFM, the amyloid nucleation score came out at 3.58 ± 0.099.
With DSINCCMMCYEK, the amyloid nucleation score was found to be 7.567 ± 0.071.
As for GFYGRL, the figure is -0.774 ± 0.74.
As for FFVPSYLPFMMFHVLSCRDF, the figure is -0.417 ± 0.45; as for IGTYGHRMELLIGSRCKSRT, -0.15 ± 0.22.
As for SELEIA, the entry is “inactive”.
In turn, RSRVSIRSHSDRRGRVKRVV returned an amyloid nucleation score of 1.15 ± 0.65.
The value for SNTDYCVSVPVLTVAFSVWA was -0.343 ± 0.51; that for GRIVVTSQFMMIGRWGSPPP was 3.29 ± 0.1.
As for YGRGESMLHAGGNWEWTGQE, the figure is 0.09 ± 1.1; as for LTNFNAWR, 0.098 ± 0.47; as for VIERFMAKRPGC, 0.698 ± 0.68.
The value for LFSPMSILRFLFMYIAKVMD was 0.213 ± 0.58.
In turn, LDHGEFTKYFRLTRCVSTCC showed an amyloid nucleation score of -0.339 ± 0.97.
As for HFVCYNCWGYICTVCLTSRE, the figure is 8.228 ± 0.065; as for PNRRCCPMVGFIWLYRVL, 0.836 ± 0.85; as for FIKHGNLSAKQPVEKDLKLD, 0.414 ± 0.46.
The value for PFAGNHTMWKVPTWGKSWKG was -0.398 ± 0.7; that for YTQSWQ was -0.309 ± 0.51.
As for GRAWCFY, the figure is 0.15 ± 0.33.
Take CLEVGFVCWNCNRLFKCLCQ: the amyloid nucleation score amounted to 1.1 ± 0.56.
As for MRFMPVVWCRRMQESLGHST, the figure is -0.026 ± 0.37; as for RVLANCLCFKYNETRRGCTL, 0.218 ± 0.95.
Consider GCVSVPYQLPPLISYGLVN, for which the amyloid nucleation score is -0.123 ± 0.62.
As for PECQSGCMV, the figure is -0.163 ± 0.41; as for GNNFFIIVAVLTQKNSAVRV, 1.19 ± 0.22; as for ALFGERPCCRC, 0.158 ± 0.28.
The value for ASNGVN was -0.099 ± 0.5; that for LLRNGFHSVLI was 0.488 ± 0.25.
As to TNTSHVLTLESCSCRERVSR, the amyloid nucleation score is 0.969 ± 0.55.
The value for VMYPRATLSQLRLKVTN was -0.116 ± 0.4.
The value for MNLQYHILN was -0.345 ± 1.7.
As for YLHWTQEDLRGNILGWSMWS, the figure is 2.32 ± 0.16; as for YYVKISLGGSLNNLWKRDWW, 3.54 ± 0.1; as for SLVLSYRVASNIKNPMTLDY, 1.24 ± 0.15.
Regarding SILFATAFMPVGLRLNDVLS, the amyloid nucleation score is -0.003 ± 0.46.
The value for AVQYNKVKERTLSQPWTHHV was -1.86 ± 1.7; that for FLIYVQYTKYSLWAPVFIHR was “inactive”; that for FCRHLGLSS was 1.25 ± 0.44.
The value for YNMVYQCLIRCVAILFNLGR was -0.321 ± 0.65.
Turning to FCRGKPRRLVP, the amyloid nucleation score is -0.219 ± 0.67.
The value for YVDSSI was -0.08 ± 0.97.
